Assay results published in PMC9894195.

Experiments:
[1] = biological target: full-length human Lck-mEGFP (HEK293T) (UniProt P06239); assay: sFCCS (line-scan fluorescence cross-correlation spectroscopy) in live cells; settings: HEK293T cells coexpressing mCherry2-tagged CD4 construct with wild-type Lck-mEGFP; read off a plot
[2] = biological target: full-length human CD4 with the amphipathic α-helix replaced by a (Gly-Ser)n linker, mCherry2-tagged (human) (UniProt P01730); assay: scanning fluorescence cross-correlation spectroscopy (sFCCS); live HEK293T cells on glass coverslips coexpressing mCherry2- and mEGFP-tagged proteins, one coreceptor; line scans at the basal cell surface; cross-correlation quotient q normalised to the tandem control (100%) and Lck^CS/Lck^CS (0%)
[3] = biological target: full-length human CD4 with both the basic-rich region and the amphipathic α-helix replaced by (Gly-Ser)n linkers, mCherry2-tagged (human) (UniProt P01730); assay: as above
[4] = biological target: full-length human CD4 with the unstructured C-terminal tail replaced by a (Gly-Ser)n linker, mCherry2-tagged (human) (UniProt P01730); assay: as above

Row | other: normalized cross-correlation quotient q (occupancy) [1] | decrease in CD4/Lck occupancy [2] | decrease in CD4/Lck occupancy [3] | decrease in CD4/Lck occupancy [4] | Substance
1 | 1% |  |  |  | full-length human CD4-mCherry2 (HEK293T) (from UniProt P01730) CQC>SQS (both Zn2+ clasp Cys to Ser; no residue numbers printed)
2 |  | 27% | 28% | 14% | full-length human Lck-mEGFP (HEK293T) (from UniProt P06239 1-509) (enzyme)
